Article PMC4729957, “The Atg1–kinase complex tethers Atg9-vesicles to initiate autophagy” (Nature Communications, 2016)
Blank lines part the entries; values can stand above or below the molecule they belong to.

T1: Atg9^core (Atg9^281–779), reconstituted in proteoliposomes (S. cerevisiae) (UniProt Q12142)
T1 sequence: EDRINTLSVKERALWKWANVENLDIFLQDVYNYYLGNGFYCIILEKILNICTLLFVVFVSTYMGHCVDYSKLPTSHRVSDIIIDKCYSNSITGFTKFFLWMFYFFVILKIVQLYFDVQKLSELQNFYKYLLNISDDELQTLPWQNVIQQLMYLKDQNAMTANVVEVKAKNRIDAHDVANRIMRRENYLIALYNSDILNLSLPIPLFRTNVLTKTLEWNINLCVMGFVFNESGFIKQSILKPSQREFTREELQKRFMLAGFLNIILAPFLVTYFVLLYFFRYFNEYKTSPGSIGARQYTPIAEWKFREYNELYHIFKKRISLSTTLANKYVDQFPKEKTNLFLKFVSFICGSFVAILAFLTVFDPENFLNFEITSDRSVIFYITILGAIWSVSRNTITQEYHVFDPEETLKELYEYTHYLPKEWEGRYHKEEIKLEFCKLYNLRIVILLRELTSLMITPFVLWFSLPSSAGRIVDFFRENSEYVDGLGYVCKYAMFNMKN

B1: Atg9^core (Atg9^281–779), reconstituted in proteoliposomes (domain or fragment, S. cerevisiae, UniProt Q12142 281-779, looked up)
chain: T1 sequence
notes: Atg9, S. cerevisiae BY4741, conserved core region, residues 281–779; modified pET28a(+) vector; about 50% of the protein in the proteoliposomes has its cytoplasmic domains outside; liposomes of cholesterol, POPE, POPC, POPS, without PI; also called Atg9–PLs; Atg9-PL; source: E. coli Rosetta, solubilised in LDAO, purified (Ni-NTA, SEC), reconstituted in liposomes; not shown: His tag, C-terminal, …
B2: thioredoxin-tagged Atg17^235–417 (domain or fragment, S. cerevisiae, UniProt Q06410 235-417, looked up)
chain: DEREELFKVVQGDDKELYNIFKTLHEVIDDVDKTILNLGQFLQAKIKEKTELHSEVSEIINDFNRNLEYLLIFKDISNLIDSFKNSCTQDIQTTKELCEFYDNFEESYGNLVLEAKRRKDVANRMKTILKDCEKQLQNLDAQDQEERQNFIAENGTYLPETIWPGKIDDFSSLYTLNYNVKNP
notes: source: E. coli Rosetta, purified
B3: Atg17–Atg31–Atg29 trimeric complex (Atg17^TC) (complex, S. cerevisiae)
chain 1: MNEADVTKFVNNARKTLTDAQLLCSSANLRIVDIKKKLSSWQLSISKLNFLIVGLRQQGKFLYTILKEGIGTKLIQKQWNQAVLVVLVDEMKYWQYEITSKVQRLDGIVNELSISEKDDTDPSKLGDYISRDNVNLLNDKLKEVPVIERQIENIKLQYENMVRKVNKELIDTKLTDVTQKFQSKFGIDNLMETNVAEQFSRELTDLEKDLAEIMNSLTQHFDKTLLLQDKKIDNDEREELFKVVQGDDKELYNIFKTLHEVIDDVDKTILNLGQFLQAKIKEKTELHSEVSEIINDFNRNLEYLLIFKDISNLIDSFKNSCTQDIQTTKELCEFYDNFEESYGNLVLEAKRRKDVANRMKTILKDCEKQLQNLDAQDQEERQNFIAENGTYLPETIWPGKIDDFSSLYTLNYNVKNP
chain 2: MNVTVTVYDKNVKYRLEENIKNNKGPSNDDQPAYNNESKSTDGSDYAMFPTNIKYIFEDNNDELVDSSDAALTAGIDKVGDELENVIIVQLDESGSLEDITLISDQYELLSHRTNSLSLEENQMRTLSSHGDDKSNDEEEELSVDSDRFRVDSDIELDVISQFCDLSPFLRDLSLNDLIKLYVTQNEQLQMLSNSV
chain 3: MIMNSTNTVVYIKVKGRRPQGFLDPPKFEWNGTKERQLWTMVSNLNYSQDQIDWQNLSKIFETPEFFLKKRTYKLFAEHLELLQLQLEKKRDLEKYSNDQVNEGMSDLIHKYTPTLQNDNLLNVSASPLTTERQDSEEVETEVTNEALQHLQTSKILNIHKKTSDSENKPNDKLDKDGINKEMECGSSDDDLSSSLSVSKSALEEALMDRLQF
notes: Atg17, S. cerevisiae BY4741; Atg31, S. cerevisiae BY4741; Atg29, S. cerevisiae BY4741; dimer of trimers through Atg17; also produced by combining Atg17 with co-expressed Atg31–Atg29; also called Atg17-Atg31–Atg29 complex; source: E. coli Rosetta, co-expressed from pST39, purified (Ni-NTA, SEC); not shown: His6, N-terminal, cleaved; copies: 2 + 2 + 2
B4: myc-tagged Atg17 (Atg17^myc), recombinant (natural protein, S. cerevisiae, UniProt Q06410 1-417, looked up)
chain: B3 chain 1
notes: Atg17, S. cerevisiae BY4741, open reading frame from genomic DNA; expressed from pST39 with a myc-tag at the C-terminus of Atg17; also called recombinant myc-tagged Atg17; source: E. coli Rosetta, purified; not shown: myc, C-terminal, kept
B5: Atg17^1–354-Atg31–Atg29 (Atg17^monoTC) (complex, S. cerevisiae)
chain 1: MNEADVTKFVNNARKTLTDAQLLCSSANLRIVDIKKKLSSWQLSISKLNFLIVGLRQQGKFLYTILKEGIGTKLIQKQWNQAVLVVLVDEMKYWQYEITSKVQRLDGIVNELSISEKDDTDPSKLGDYISRDNVNLLNDKLKEVPVIERQIENIKLQYENMVRKVNKELIDTKLTDVTQKFQSKFGIDNLMETNVAEQFSRELTDLEKDLAEIMNSLTQHFDKTLLLQDKKIDNDEREELFKVVQGDDKELYNIFKTLHEVIDDVDKTILNLGQFLQAKIKEKTELHSEVSEIINDFNRNLEYLLIFKDISNLIDSFKNSCTQDIQTTKELCEFYDNFEESYGNLVLEAKRRKD
chain 2: B3 chain 2
chain 3: B3 chain 3
notes: Atg31, S. cerevisiae BY4741; Atg29, S. cerevisiae BY4741; source: E. coli Rosetta, co-expressed from pST39, purified (Ni-NTA, SEC); not shown: His6, N-terminal, cleaved; copies: + +
B6: thioredoxin-tagged Atg17^235–354 (domain or fragment, S. cerevisiae, UniProt Q06410 235-354, looked up)
chain: DEREELFKVVQGDDKELYNIFKTLHEVIDDVDKTILNLGQFLQAKIKEKTELHSEVSEIINDFNRNLEYLLIFKDISNLIDSFKNSCTQDIQTTKELCEFYDNFEESYGNLVLEAKRRKD
notes: as for B2
B7: thioredoxin-tagged Atg17^354–417 (domain or fragment, S. cerevisiae, UniProt Q06410 354-417, looked up)
chain: DVANRMKTILKDCEKQLQNLDAQDQEERQNFIAENGTYLPETIWPGKIDDFSSLYTLNYNVKNP
notes: also called dimerization domain; source: E. coli Rosetta, purified

What was measured:
[1] = target: pentameric Atg1–kinase complex (Atg1^PC) (S. cerevisiae) (UniProt P53104); experiment: SEC-MALS; Atg1^PC injected at 3.4 mg ml^−1, 100 μl, Superose-6 10/300GL
[2] = target: T2, Atg1^PC with myc-tagged Atg17 (S. cerevisiae, UniProt P53104 1-897; Q06628 1-738; Q06410 1-417; Q12421 1-196; Q12092 1-213, phosphothreonine at 226 (T226)); experiment: co-floatation with proteoliposomes; Atg9 variant held in proteoliposomes (synthetic lipids without PI), partner in solution at 1:1, Nycodenz step gradient, 650,000g 2 h at 4 °C, 25 mM HEPES pH 7.0, 100 mM NaCl; top fraction read by SDS–PAGE or α-myc immunoblot; settings: both partners purified
T2 construct: Atg1, S. cerevisiae BY4741; Atg13, S. cerevisiae BY4741; Atg17, S. cerevisiae BY4741; Atg31, S. cerevisiae BY4741; Atg29, S. cerevisiae BY4741; the form detected by α-myc immunoblot in the co-floatation experiments; also called Atg17^TC combined with Atg1–Atg13; source: purified Atg1–Atg13 combined with purified Atg17^TC; not shown: myc, C-terminal, kept; copies: 2 + 2 + 2 + 2 + 2
T2 sequence (P53104 whole entry, chain 1 of 2): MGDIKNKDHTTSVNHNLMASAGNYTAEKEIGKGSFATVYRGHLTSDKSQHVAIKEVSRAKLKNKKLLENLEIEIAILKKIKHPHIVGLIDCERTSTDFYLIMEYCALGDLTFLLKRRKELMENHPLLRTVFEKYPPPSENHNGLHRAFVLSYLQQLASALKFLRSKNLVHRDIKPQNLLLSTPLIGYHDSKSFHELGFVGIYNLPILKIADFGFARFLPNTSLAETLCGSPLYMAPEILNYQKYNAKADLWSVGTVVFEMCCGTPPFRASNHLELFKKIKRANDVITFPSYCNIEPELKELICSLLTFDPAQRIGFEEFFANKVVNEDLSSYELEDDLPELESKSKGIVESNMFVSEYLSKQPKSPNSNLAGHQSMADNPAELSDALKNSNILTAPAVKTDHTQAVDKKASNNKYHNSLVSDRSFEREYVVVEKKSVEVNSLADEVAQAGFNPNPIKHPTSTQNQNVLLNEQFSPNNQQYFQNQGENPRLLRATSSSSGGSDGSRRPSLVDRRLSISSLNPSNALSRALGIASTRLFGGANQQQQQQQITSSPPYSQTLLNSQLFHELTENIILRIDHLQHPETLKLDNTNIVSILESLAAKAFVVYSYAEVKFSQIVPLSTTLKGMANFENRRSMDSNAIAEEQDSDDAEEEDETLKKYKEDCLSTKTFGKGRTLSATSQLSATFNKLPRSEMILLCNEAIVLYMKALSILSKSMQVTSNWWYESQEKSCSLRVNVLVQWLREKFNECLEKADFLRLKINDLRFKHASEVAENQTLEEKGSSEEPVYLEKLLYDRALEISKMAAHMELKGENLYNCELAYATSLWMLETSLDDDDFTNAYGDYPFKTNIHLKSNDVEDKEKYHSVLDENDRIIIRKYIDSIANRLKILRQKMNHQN
T2 sequence (Q06628 whole entry, chain 2 of 2): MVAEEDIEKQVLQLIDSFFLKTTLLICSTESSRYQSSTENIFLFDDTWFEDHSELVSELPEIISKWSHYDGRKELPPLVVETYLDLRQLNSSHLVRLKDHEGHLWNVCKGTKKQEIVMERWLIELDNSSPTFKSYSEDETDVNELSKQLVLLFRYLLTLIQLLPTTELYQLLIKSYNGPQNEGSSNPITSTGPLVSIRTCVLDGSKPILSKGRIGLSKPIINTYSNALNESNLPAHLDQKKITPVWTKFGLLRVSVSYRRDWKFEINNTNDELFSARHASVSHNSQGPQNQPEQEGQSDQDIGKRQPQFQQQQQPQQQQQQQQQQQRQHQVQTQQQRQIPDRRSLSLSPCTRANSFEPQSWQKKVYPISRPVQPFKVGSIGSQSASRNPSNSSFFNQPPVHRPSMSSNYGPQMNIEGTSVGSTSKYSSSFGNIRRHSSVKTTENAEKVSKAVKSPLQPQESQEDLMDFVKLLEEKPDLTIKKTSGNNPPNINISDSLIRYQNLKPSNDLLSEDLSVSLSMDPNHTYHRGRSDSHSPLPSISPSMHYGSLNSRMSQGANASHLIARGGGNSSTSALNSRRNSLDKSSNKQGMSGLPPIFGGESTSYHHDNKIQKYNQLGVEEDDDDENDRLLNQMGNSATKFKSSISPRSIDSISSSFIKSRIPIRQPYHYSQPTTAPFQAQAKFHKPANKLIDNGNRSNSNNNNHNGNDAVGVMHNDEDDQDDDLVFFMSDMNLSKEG

[3] = target: T3, Atg17^TC (myc-tagged Atg17) with Atg13 alone (S. cerevisiae, UniProt Q06628 1-738; Q06410 1-417; Q12421 1-196; Q12092 1-213); experiment: as above; settings: both partners purified
T3 construct: Atg13, S. cerevisiae BY4741; Atg17, S. cerevisiae BY4741; Atg31, S. cerevisiae BY4741; Atg29, S. cerevisiae BY4741; it was not isolated as such; also called Atg17^TC in the presence of Atg13; source: purified Atg13 combined with purified Atg17^TC; not shown: myc, C-terminal, kept; copies: + 2 + 2 + 2
T3 sequence (Q06628 whole entry, one chain of several): as the sequence (Q06628 whole entry, chain 2 of 2) above

[4] = target: B1; experiment: as above; settings: both partners purified
[5] = target: the molecule itself; experiment: not stated; recombinantly expressed Atg17 fragment; how the dimer was shown is not told
[6] = target: the molecule itself; experiment: dynamic light scattering; Stokes radii (RH) of the purified proteins and complexes in solution
Atg1–Atg13 subcomplex = target: T4, Atg1–Atg13 subcomplex (S. cerevisiae, UniProt P53104 1-897; Q06628 1-738, phosphothreonine at 226 (T226)); experiment: SEC; complexes assembled from purified subunits or subcomplexes, 30 min at room temperature, then gel filtration on Superose 6; settings: both partners purified
T4 construct: Atg1, S. cerevisiae BY4741; Atg13, S. cerevisiae BY4741; source: assembled from purified subunits (Atg1 from High Five cells, Atg13 from E. coli Rosetta), gel filtration on Superose 6
T4 sequence (P53104 whole entry, chain 1 of 2): as the sequence (P53104 whole entry, chain 1 of 2) above
T4 sequence (Q06628 whole entry, chain 2 of 2): as the sequence (Q06628 whole entry, chain 2 of 2) above

[7] = target: T1, Atg9^core (Atg9^281–779), reconstituted in proteoliposomes (S. cerevisiae)

- stoichiometry N [1]: 2
Molecule: pentameric Atg1–kinase complex (Atg1^PC), P53104 1-897; Q06628 1-738; Q06410 1-417; Q12421 1-196; Q12092 1-213

Molecule: B1
- binding result [2]: binds
- binding result [3]: binds

Molecule: B2
- binding result [4]: binds
- stoichiometry N [5]: 2

Molecule: B3
- stoichiometry N [6]: 2
- binding result (Atg1–Atg13 subcomplex): binds
- RH of Atg9–PLs prepared in the presence of Atg17^TC, by DLS (vesicle tethering) [7]: 72 nm

Molecule: B4
- binding result [4]: binds

Molecule: B5
- binding result (Atg1–Atg13 subcomplex): binds

Molecule: B6
- binding result [4]: binds

Molecule: B7
- binding result [4]: binds
